Measurements from ChEMBL document CHEMBL2073751, “Adenosine triphosphate-dependent transport of estradiol-17beta(beta-D-glucuronide) in membrane vesicles by MDR1 expressed in insect cells” (Hepatology, 1998).

System: C[C@]12CC[C@@H]3c4ccc(O)cc4CC[C@H]3[C@@H]1CC[C@@H]2O[C@@H]1O[C@H](C(=O)O)[C@@H](O)[C@H](O)[C@H]1O
Assay: TP_TRANSPORTER: uptake in membrane vesicle from MDR1-expressing Sf9 cells
Format: functional, cell membranes

Work on “ATP-dependent translocase ABCB1 (Homo sapiens)” yielded a Km of 62 µM.
